Ends that are not written are not given here.
Experiments:
human P2X4 peptide [1] = molecular target: T1, human P2X4 peptide (human, UniProt Q99571 301-313); experiment: indirect ELISA on human P2X4 peptide
T1 construct: range 301-313; The range 301-313 is stated for rat P2X4R, with the human peptide as its 'human form'; also called human Target P2X4R peptide; thirteen amino acid extracellular peptide fragment of human P2X4 receptor
T1 peptide (looked up): RDLAGNEQRTLIK

human P2X4 peptide [2] = molecular target: T1, human P2X4 peptide; experiment: indirect ELISA, wells coated with human P2X4 peptide, anti-His detection
[3] = molecular target: T2, Hu CCK-B receptor protein (human, UniProt P32239 1-447, limits assumed); experiment: indirect ELISA on human CCK-B receptor protein, concentration not shown
T2 construct: also called human CCK-B receptor
T2 sequence (looked up): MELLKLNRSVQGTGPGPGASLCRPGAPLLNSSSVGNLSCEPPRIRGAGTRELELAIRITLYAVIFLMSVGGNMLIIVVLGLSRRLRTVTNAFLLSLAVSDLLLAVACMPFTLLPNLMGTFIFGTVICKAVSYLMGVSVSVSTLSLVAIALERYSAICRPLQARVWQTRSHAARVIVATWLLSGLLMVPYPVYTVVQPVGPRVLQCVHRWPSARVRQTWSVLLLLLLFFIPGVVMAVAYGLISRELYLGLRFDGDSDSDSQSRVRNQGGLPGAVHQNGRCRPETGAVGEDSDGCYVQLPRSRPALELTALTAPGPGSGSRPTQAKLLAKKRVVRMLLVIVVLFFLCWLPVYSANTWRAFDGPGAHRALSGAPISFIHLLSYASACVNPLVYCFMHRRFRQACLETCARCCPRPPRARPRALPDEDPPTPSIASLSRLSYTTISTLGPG

[4] = molecular target: T3, rat P2X4R extracellular peptide (a.a. 301-313, C-RDLAGKEQRTLTK) (rat, not fully specified (N-terminus)); experiment: indirect ELISA of purified scFv on rat P2X4 peptide, concentration not shown
T3 construct: also called P2X4R peptide; rat P2X4 peptide
T3 peptide: RDLAGKEQRTLTK

[5] = molecular target: T3, rat P2X4R extracellular peptide (a.a. …); experiment: indirect ELISA titration on P2X4R peptide; legend box headed 'APPARENT Kd (nM)'
[6] = molecular target: human and mouse peptide targets; experiment: not stated (estimated affinity)

Row | Binder | fold affinity improvement over parental mscFv95 (human P2X4 peptide [1]) [fold] | Kd (human P2X4 peptide [2]) [nM] | binding result [3] | binding result [4] | Kd [5] [nM] | Kd [6] [nM] | fold affinity enhancement over parental mscFv95 (human P2X4 peptide [1]) [fold]
1 | humanized P2X4R scFv HC2-LC1 (scFv, HC-(G4S)3-LC with C-terminal His tag, expressed in E. coli) scFv: MAQVQLQESGPGLVKPSQTLSLTCTTSGFTFTDYYMSWVRQAPGKGLEWIGFIRNKANGYTTEYSASVKGRFTISRDNSKNQFSLRLSSVTAADTAVYYCARWEGDLLYAMDYWGQGTTVTVSSGGGGSGGGGSGGGGSDIQMTQTTSSLSASLGDRVTISCSASQGISNYLNWYQQKPDGTVKLLIYYTSSLHSGVPSRFSGSGSGTDYSLTISNLEQEDIATYYCQQYSKLPWTFGGGTKLEIKRAAALEHHHHHH | > 10 | 12 | no binding | binds | – | – | –
2 | humanized P2X4R scFv HC1-LC1 (scFv, HC-(G4S)3-LC with C-terminal His tag, expressed in E. coli) scFv: MAEVKLVESGGGLVQPGGSLRLSCATSGFTFTDYYMSWVRQPPGKALEWLGFIRNKANGYTTEYSASVKGRFTISRDNSQSILYLQMNTLRAEDSATYYCARWEGDLLYAMDYWGQGTSVTVSSGGGGSGGGGSGGGGSDIQMTQTTSSLSASLGDRVTISCSASQGISNYLNWYQQKPDGTVKLLIYYTSSLHSGVPSRFSGSGSGTDYSLTISNLEQEDIATYYCQQYSKLPWTFGGGTKLEIKRAAALEHHHHHH | – | 24 | no binding | binds | – | – | –
3 | humanized P2X4R scFv HC3-LC1 (scFv, HC-(G4S)3-LC with C-terminal His tag, expressed in E. coli) scFv: MAEVQLVESGGGLVQPGGSLRLSCATSGFTFTDYYMHWVRQAPGKGLEWVGFIRNKANGYTTEYSASVKGRFTISRDNSKNTLYLQMNSLRAEDTAVYYCARWEGDLLYAMDYWGQGTLVTVSSGGGGSGGGGSGGGGSDIQMTQTTSSLSASLGDRVTISCSASQGISNYLNWYQQKPDGTVKLLIYYTSSLHSGVPSRFSGSGSGTDYSLTISNLEQEDIATYYCQQYSKLPWTFGGGTKLEIKRAAALEHHHHHH | > 10 | 4.7 | no binding | binds | – | – | –
4 | humanized P2X4R scFv HC2-LC3 (scFv, HC-(G4S)3-LC with C-terminal His tag) scFv: MAQVQLQESGPGLVKPSQTLSLTCTTSGFTFTDYYMSWVRQAPGKGLEWIGFIRNKANGYTTEYSASVKGRFTISRDNSKNQFSLRLSSVTAADTAVYYCARWEGDLLYAMDYWGQGTTVTVSSGGGGSGGGGSGGGGSDIQMTQSPSSLSASVGDRVTITCRASQGISNYLNWYQQKPGKAPKLLIYYTSSLHSGVPSRFSGSGSGTDFTLTISSLQPEDFAYYYCQQYSKLPWTFGGGTKVEIKRAAALEHHHHHH | – | 29 | no binding | binds | – | – | –
5 | P2X4-scFv103 (scFv) scFv: MAQVQLKESGAELVRSGASVKLSCTASGFNIKNTYMHWVKQRPEQGLEWIGRIDPASGNTKYAPKFQGKATITADTSSNTAYLQLSSLTSEDTAIYYCARFYDGYYWGQGTTLTVSSAKTTAPSGGGGSGGGGSGGGGSGGGGSAIMSASPGEKVTMTCSASSSVSYMHWYQQKSGTSPKRWIYDTSKLASGVPARFSGSGSGTSYSLTISRMEAEDAATYYCQQYSGYGTFGGGTKLEIKRADAAALEHHHHHH | – | – | – | – | 978 | – | –
6 | P2X4-scFv95 (parental murine anti-P2X4R scFv) (scFv, also called mscFv95; clone 95) scFv: MAEVKLVESGGGLVQPGGSLRLSCATSGFTFTDYYMSWVRQPPGKALEWLGFIRNKANGYTTEYSASVKGRFTISRDNSQSILYLQMNTLRAEDSATYYCARWEGDLLYAMDYWGQGTSVTVSSGGGGSGGGGSGGGGGSGGGGSDIQMTQTTSSLSASLGDRVTISCSASQGISNYLNWYQQKPDGTVKLLIYYTSSLHSGVPSRFSGSGSGTDYSLTISNLEPEDIATYYCQQYSKLPWTFGGGTKLEIKRADAAALEHHHHHH | – | 130 | no binding | – | 130 | 130 to 190 | –
7 | P2X4-scFv12 (scFv) scFv: MADVKLQESGPGLVKPSQSLSLTCSVTGYSITSGYYWNWIRQFPGNKLEWMGYISYDGSNNYNPSLKNRISITRDTSKNQFFLKLNSVTTEDTATYYCARSDYDLYYYAMDYWGQGTSVTVSSAKTTPPSGGGGSGGGGSGGGGGSGGGGSDIVMTQSPATLSVTPGDRVSLSCRASQSISDYLHWYQQKSHESPRLLIKYASQSISGIPSRFSGSGSGSDFTLSINSVEPEDVGVYYCQNGHSFPLTFGSGTKLEIKRADAAALEHHHHHH | – | – | – | – | 177 | – | –
8 | humanized hP2X4R scFv HC3-LC3 (scFv, HC-(G4S)3-LC with C-terminal His tag; also called hP2X4R HC3-LC3 scFv; HC3 LC3 hP2X4R scFv) scFv: MAEVQLVESGGGLVQPGGSLRLSCATSGFTFTDYYMHWVRQAPGKGLEWVGFIRNKANGYTTEYSASVKGRFTISRDNSKNTLYLQMNSLRAEDTAVYYCARWEGDLLYAMDYWGQGTLVTVSSGGGGSGGGGSGGGGSDIQMTQSPSSLSASVGDRVTITCRASQGISNYLNWYQQKPGKAPKLLIYYTSSLHSGVPSRFSGSGSGTDFTLTISSLQPEDFAYYYCQQYSKLPWTFGGGTKVEIKRAAALEHHHHHH | > 10 | 2.3 | no binding | binds | – | – | > 50

— patent publication US20250059273A1 (UNM RAINFOREST INNOVATIONS, published 2025)
